Source: paper PMC12582157

Assays:
[1] = biological target: T1, β-conglutin (Lupinus albus (white lupin)?) (UniProt Q53HY0); assay: MST; settings: Binding buffer, salt, pH and temperature not given in the material
T1 sequence: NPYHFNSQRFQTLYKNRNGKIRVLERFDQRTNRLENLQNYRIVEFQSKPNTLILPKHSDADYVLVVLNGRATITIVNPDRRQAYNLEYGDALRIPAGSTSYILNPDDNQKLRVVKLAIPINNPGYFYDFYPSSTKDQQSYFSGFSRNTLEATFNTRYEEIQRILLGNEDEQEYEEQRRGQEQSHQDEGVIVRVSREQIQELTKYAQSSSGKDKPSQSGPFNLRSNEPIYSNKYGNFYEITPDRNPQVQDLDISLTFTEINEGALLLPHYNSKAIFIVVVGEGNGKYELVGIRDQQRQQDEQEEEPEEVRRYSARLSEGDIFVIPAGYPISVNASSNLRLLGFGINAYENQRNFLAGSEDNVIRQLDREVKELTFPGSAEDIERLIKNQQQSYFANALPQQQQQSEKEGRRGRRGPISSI

[2] = biological target: T1, β-conglutin (Lupinus albus (white lupin)?); assay: ELAA; settings: Binding buffer, salt, pH and temperature not given in the material
[3] = biological target: T1, β-conglutin (Lupinus albus (white lupin)?); assay: BLI; settings: 1:1 model, Binding buffer, salt
[4] = biological target: T1, β-conglutin (Lupinus albus (white lupin)?); assay: SPR; settings: dA outside the 5' primer region (nt 24-94) replaced by indole-modified dA (dAEIn); Binding buffer, salt, pH and temperature not given in the material
[5] = all dA = dAEIn, 5' dC carries Cy5
[6] = dA outside the 5' primer region (nt 24-94) replaced by indole-modified dA (dAEIn)

CCAAGATCTCGCGAGTTCCCAACAGGGCAGAGAGATGCCCGACACCAGTGCAACTAGGATACTATGACCCC [HB8_T2]
Kd [1, 5]: 256 nM

AGCTCCAGAAGATAAATTACAGGCCAAGATCTCGCGAGTTCCCAACAGGGCAGAGAGATGCCCGACACCAGTGCAACTAGGATACTATGACCCC [HB8_M2]
Kd ([1]; dAEIn in nt 24-73, 3' 21 nt with natural dA): 44 nM

AGCTCCAGAAGATAAATTACAGGCAAGATCACCGTAGACGCGTCGAGAAGTGTGAGATCCTATGAAATGACCGCAACTAGGATACTATGACCCC [HB7]
Kd ([2]; dA outside 5' primer = dAEIn): 1.1 nM

AGCTCCAGAAGATAAATTACAGGCCAAGATCTCGCGAGTTCCCAACAGGGCAGAGAGATGCCCGACACCAGTGCAACTAGGATACTATGACCCC [HB8]
Kd ([3]; dA outside the 5' primer region (nt 24-94) replaced by indole-modified dA (dAEIn), pH and temperature not given in the …): 0.9 nM
Kd [2, 6]: 0.6 nM
Kd [1, 6]: 41 nM
Kd [4]: 92 nM

CCAAGATCTCGCGAGTTCCCAACAGGGCAGAGAGATGCCCGACACCAGTG [HB8_T3]
Kd [1, 5]: 145 nM

AGCTCCAGAAGATAAATTACAGGCCAAGATCTCGCGAGTTCCCAACAGGGCAGAGAGATGCCCGACACCAGTG [HB8_T1]
Kd ([3]; dA in nt 24-73 = dAEIn, pH and temperature not given in the material): 0.6 nM
Kd ([1]; dA in nt 24-73 = dAEIn): 42 nM

AGCTCCAGAAGATAAATTACAGGCCAAGATCTCGCGAGTTCCCAACAGGGCAGAGAGATGCCCGACACCAGTGCAACTAGGATACTATGACCCC [HB8_M1]
Kd ([1]; dAEIn as in HB8 except three central positions following the primer, which are natural dA): 134 nM

GATAAATTACAGGCCAAGATCTCGCGAGTTCCCAACAGGGCAGAGAGATGCCCGACACCAGTGCAACTAGGATACTATGACCCC [HB8_T4]
Kd ([1]; dA after the 13 nt primer remainder = dAEIn): 24 nM
